Publication doi:10.1101/2024.07.16.603715

Biological target: PTPRD/S (signal of the anti-PTPR blot in BN-PAGE)
Assay: native gel or EMSA

tetraspanin T178B (natural protein)
stoichiometry N: 1
